# Experimental data as given in patent publication US20220340657A1 (L AND L BIO CO LTD NINGBO CHINA, published 2022).
# Like-named read-outs stand apart in the source and are kept apart here.
# T1: bio-LAG3-mFc (human, UniProt P18627 23-450, biotin-labelled)
# T1 construct: also called hLAG-3
# T1 sequence (looked up): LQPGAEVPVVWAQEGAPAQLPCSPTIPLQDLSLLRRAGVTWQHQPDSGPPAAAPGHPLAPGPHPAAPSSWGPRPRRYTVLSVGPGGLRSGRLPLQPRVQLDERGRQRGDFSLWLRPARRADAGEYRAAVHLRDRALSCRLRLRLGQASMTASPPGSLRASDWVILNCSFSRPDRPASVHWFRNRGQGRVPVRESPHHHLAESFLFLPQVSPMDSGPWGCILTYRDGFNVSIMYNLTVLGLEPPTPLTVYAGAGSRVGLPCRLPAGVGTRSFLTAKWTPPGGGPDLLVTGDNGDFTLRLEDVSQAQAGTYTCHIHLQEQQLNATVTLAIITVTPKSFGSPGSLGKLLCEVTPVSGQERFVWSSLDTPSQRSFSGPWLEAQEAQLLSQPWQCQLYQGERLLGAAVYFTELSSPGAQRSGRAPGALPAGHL
# T2: human LAG-3-his (human, UniProt P18627 23-422)
# T2 construct: range 23-422; also called hLAG-3-his; hLAG-3
# T2 sequence: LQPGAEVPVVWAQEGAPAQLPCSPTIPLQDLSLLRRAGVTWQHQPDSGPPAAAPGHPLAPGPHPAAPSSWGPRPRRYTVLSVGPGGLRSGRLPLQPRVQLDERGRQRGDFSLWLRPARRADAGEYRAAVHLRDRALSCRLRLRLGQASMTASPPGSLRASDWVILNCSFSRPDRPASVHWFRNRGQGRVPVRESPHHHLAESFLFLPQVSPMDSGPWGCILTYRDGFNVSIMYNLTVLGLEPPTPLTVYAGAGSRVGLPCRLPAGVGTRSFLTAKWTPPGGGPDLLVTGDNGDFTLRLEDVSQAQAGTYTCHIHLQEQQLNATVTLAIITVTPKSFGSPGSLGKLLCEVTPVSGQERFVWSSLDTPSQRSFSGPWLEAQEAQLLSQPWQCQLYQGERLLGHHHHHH
# B1: humanized anti-human LAG-3 antibody Ab2317 (antibody, human IgG4 S228P, kappa, V domains shown)
# VH: QVQLVQSGAEVKKPGASVKVSCKASGYTFTDYEMHWVKQAPGQGLEWIGGIDPETEGIAYNQKFRGRATLTADKSTSTAYMELRSLRSDDTAVYYCTNSNYYGGREAWFAYWGQGTLVTVSS
# VL: DIQMTQSPSSLSASVGDRVTITCRASQDIGSSLNWYQQKPGKAPKRLIYATSSLDSGVPSRFSGSRSGSDFTLTISSLQPEDFATYYCLQYVTSPLTFGGGTKVEIKR
# notes: LG2317 / LG2343, human kappa / hIgG4
# Columns and labels:
# bio-LAG3-mFc = target: T1, bio-LAG3-mFc; assay: blocking ELISA, LAG-3 on Daudi cells
# human LAG-3-his [1] = target: T2, human LAG-3-his; assay: ELISA on coated human LAG-3, OD450 (Example 3, Example 13) [panel a]
# human LAG-3-his [2] = target: T2, human LAG-3-his; assay: as above; remark: listed apart in the source
# human LAG-3-his [3] = target: T2, human LAG-3-his; assay: as above; remark: listed apart in the source
# human LAG-3-his [4] = target: T2, human LAG-3-his; assay: as above; remark: listed apart in the source
binder,measurement,setting,value
B1,fold stronger blocking activity than Ref,bio-LAG3-mFc,≥ 2 times
same,EC50 (read off the curve),human LAG-3-his [1],~300 pM
same,EC50 (read off the curve),human LAG-3-his [2],~300 pM
same,EC50 (read off the curve),human LAG-3-his [3],~300 pM
same,EC50 (read off the curve),human LAG-3-his [4],~300 pM
